Data: US20070184523A1 (Genentech, published 2007)

What was measured:
[1] = biological target: T1, CH3 T366S:L368A:Y407V cavity mutant (human, UniProt P01857-1 224-330 = IgG part, T366S; L368A; Y407V); experiment: calorimetry of a 1:1 mixture of purified CH3 domains
T1 construct: domain: CH3; Isolated CH3 domain secreted from E. coli; Positions follow Eu numbering; also called phage-selected cavity mutant

CH3 Y407A cavity mutant = biological target: T2, CH3 Y407A cavity mutant (human, UniProt P01857-1 224-330 = IgG part, Y407A); experiment: calorimetry of a mixture of purified CH3 domains
T2 construct: domain: CH3; Isolated CH3 domain secreted from E. coli; Positions follow Eu numbering; also called designed cavity mutant

binding result [1]: binds
binding result (CH3 Y407A cavity mutant): binds
B1: CH3 T366W protuberance mutant (other, human, UniProt P01857-1 224-330, looked up, name in EU numbering)
chain: GQPREPQVYTLPPSRDELTKNQVSLWCLVKGFYPSDIAVEWESNGQPENNYKTTPPVLDSDGSFFLYSKLTVDKSRWQQGNVFSCSVMHEALHNHYTQKSLSLSPGK
notes: domain: CH3; Isolated CH3 domain secreted from E. coli (plasmid pAK19); Positions follow Eu numbering, not the UniProt entry
